# In the supplement of paper PMC9112550, “Optimization of the antimicrobial peptide Bac7 by deep mutational scanning” (BMC Biology, 2022):
# Test system: Escherichia coli TOP10
# Test: shrunken log2 fold change of peptide-encoding DNA abundance (4.5 h post-induction vs induction); higher = less antimicrobial activity (less host growth inhibition)
# Conditions: time post-induction: 4.5 h; library: site-saturation at positions 5, 18, 19, 20
# 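Note: peptides expressed intracellularly from a pBAD plasmid library in pooled LB shake-flask culture, induced with 0.3% L-arabinose, DNA abundance read by NGS, three biological replicates, DESeq2 with apeglm shrinkage.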
row,Sequence,shrunken log2 fold change
1,RRIRFRPPRLPRPRPRPLFRPRP,-0.372
2,RRIRFRPPRLPRPRPRPLGLPRP,-0.0983
3,RRIRFRPPRLPRPRPRPLILPRP,-0.739
4,RRIRFRPPRLPRPRPRPLKCPRP,-0.189
5,RRIRFRPPRLPRPRPRPLLMPRP,-0.564
6,RRIRFRPPRLPRPRPRPLMFPRP,-0.695
7,RRIRFRPPRLPRPRPRPLNCPRP,-0.125
8,RRIRFRPPRLPRPRPRPLNIPRP,-0.594
9,RRIRFRPPRLPRPRPRPLPDPRP,0.138
10,RRIRFRPPRLPRPRPRPLPFPRP,-0.452
11,RRIRFRPPRLPRPRPRPLPSPRP,0.0283
12,RRIRFRPPRLPRPRPRPLQYPRP,-0.242
13,RRIRFRPPRLPRPRPRPLSSPRP,-0.307
14,RRIRFRPPRLPRPRPRPLSVPRP,-0.271
15,RRIRFRPPRLPRPRPRPLVNPRP,-0.0651
16,RRIRFRPPRLPRPRPRPLVRPRP,-0.102
17,RRIRFRPPRLPRPRPRPLWFPRP,0.00985
18,RRIRFRPPRLPRPRPRPMCPPRP,-0.176
19,RRIRFRPPRLPRPRPRPMDKPRP,-0.301
20,RRIRFRPPRLPRPRPRPMDSPRP,-0.398
21,RRIRFRPPRLPRPRPRPMEFPRP,-0.194
22,RRIRFRPPRLPRPRPRPMFEPRP,-0.0233
23,RRIRFRPPRLPRPRPRPMFFPRP,-0.549
24,RRIRFRPPRLPRPRPRPMGFPRP,-0.0249
25,RRIRFRPPRLPRPRPRPMHIPRP,-0.419

row,Sequence,shrunken log2 fold change
1,RRIRFRPPRLPRPRPRPMLKPRP,-0.527
2,RRIRFRPPRLPRPRPRPMLMPRP,-0.0715
3,RRIRFRPPRLPRPRPRPMMNPRP,-0.77
4,RRIRFRPPRLPRPRPRPMNTPRP,0.0693
5,RRIRFRPPRLPRPRPRPMQTPRP,-0.101
6,RRIRFRPPRLPRPRPRPMRIPRP,0.068
7,RRIRFRPPRLPRPRPRPMRMPRP,-0.0248
8,RRIRFRPPRLPRPRPRPMSHPRP,0.00661
9,RRIRFRPPRLPRPRPRPMSMPRP,0.00945
10,RRIRFRPPRLPRPRPRPMTHPRP,-0.401
11,RRIRFRPPRLPRPRPRPMTMPRP,-0.132
12,RRIRFRPPRLPRPRPRPMTSPRP,-0.552
13,RRIRFRPPRLPRPRPRPNANPRP,-0.0822
14,RRIRFRPPRLPRPRPRPNCRPRP,0.0638
15,RRIRFRPPRLPRPRPRPNDNPRP,-0.616
16,RRIRFRPPRLPRPRPRPNDTPRP,-0.179
17,RRIRFRPPRLPRPRPRPNFEPRP,-0.0264
18,RRIRFRPPRLPRPRPRPNGFPRP,0.000958
19,RRIRFRPPRLPRPRPRPNHIPRP,-0.937
20,RRIRFRPPRLPRPRPRPNHVPRP,-0.276
21,RRIRFRPPRLPRPRPRPNIGPRP,-0.0107
22,RRIRFRPPRLPRPRPRPNKTPRP,-0.172
23,RRIRFRPPRLPRPRPRPNKVPRP,-0.92
24,RRIRFRPPRLPRPRPRPNPAPRP,0.0261
25,RRIRFRPPRLPRPRPRPNPNPRP,-0.168

row,Sequence,shrunken log2 fold change
1,RRIRFRPPRLPRPRPRPNSHPRP,-0.432
2,RRIRFRPPRLPRPRPRPNTDPRP,-0.384
3,RRIRFRPPRLPRPRPRPNTSPRP,-0.307
4,RRIRFRPPRLPRPRPRPNWHPRP,-0.0729
5,RRIRFRPPRLPRPRPRPNWLPRP,-0.0999
6,RRIRFRPPRLPRPRPRPNYMPRP,-0.254
7,RRIRFRPPRLPRPRPRPNYRPRP,0.055
8,RRIRFRPPRLPRPRPRPNYWPRP,-0.221
9,RRIRFRPPRLPRPRPRPPAKPRP,0.633
10,RRIRFRPPRLPRPRPRPPCGPRP,0.362
11,RRIRFRPPRLPRPRPRPPDKPRP,0.151
12,RRIRFRPPRLPRPRPRPPEVPRP,0.795
13,RRIRFRPPRLPRPRPRPPEWPRP,0.139
14,RRIRFRPPRLPRPRPRPPHMPRP,-0.137
15,RRIRFRPPRLPRPRPRPPHQPRP,0.301
16,RRIRFRPPRLPRPRPRPPIIPRP,0.92
17,RRIRFRPPRLPRPRPRPPIVPRP,-0.126
18,RRIRFRPPRLPRPRPRPPKMPRP,0.436
19,RRIRFRPPRLPRPRPRPPKTPRP,0.0214
20,RRIRFRPPRLPRPRPRPPLRPRP,0.373
21,RRIRFRPPRLPRPRPRPPMGPRP,-0.00833
22,RRIRFRPPRLPRPRPRPPNYPRP,-0.023
23,RRIRFRPPRLPRPRPRPPPCPRP,0.898
24,RRIRFRPPRLPRPRPRPPPFPRP,0.608
25,RRIRFRPPRLPRPRPRPPPLPRP,1.38
